“Also recorded” adds a separate entry of the source. Each block holds one molecule with its values, some of them ahead of it. Where no end group is shown, it is not given here. [ ]: non-standard residue; d: D form. pT = C[C@@H](OP(=O)(O)O)[C@H](N)C(=O)O; pS = N[C@@H](COP(=O)(O)O)C(=O)O
Experiments:
[1] = test system: p38 MAPK; conditions: SB203580 2.5 μM
Protocol: The reactions were terminated after 30 min at 30° C. by addition of SDS-PAGE sample buffer, separated by SDS-PAGE and transferred to nitrocellulose. Protein was visualized by staining with PonceauS and incorporated ^32P was visualized by autoradiography. In specific experiments, whole cell extracts were first depleted of Akt prior to p38 MAPK immunoprecipitation by being pre-incubated with anti-Akt antibody prebound to protein A-Sepharose followed by one incubation with protein A-sepharose alone.

[2] = test system: phosphorylation of endogenous GSK3β at Ser^389; assay: Western blot of phospho-Ser^389 of endogenous GSK3β in MEFs and ES cells; assay type: cell-based, mouse; conditions: FIG. 4E-F
Protocol: (§1) Thymocytes were isolated from wildtype, Rag^−/− or MKK6(Glu) transgenic mice. 293T cells were transiently transfected with the indicated expression constructs using calcium phosphate. When specified, 293T cells were treated with SB203580 (5 μM) and Wortmanin (1 μM) (Calbiochem, San Diego, Calif.). Wildtype, GSK3α^−/− and GSK3β^−/− ES cells (17), as well as WT and MKK3^−/−MKK6^−/− MEF (22) have been previously described, and were also treated with SB203580 as described above for the indicated periods of time. For in vivo inhibition of p38 MAPK, wildtype mice were intraperitoneally (i.p.) injected with SB203580 or vehicle alone, and after 18 hours brain and thymocytes were harvested to prepare whole cell lysates.
(§2) Whole cell extracts were prepared in Triton lysis buffer (TLB) as previously described (25, 26). Nuclear extracts were made from cells as previously described (27). Immunoprecipitations and Western blotting was performed as described in (8). Anti-Akt, anti-p38 MAPK, anti-Lef, anti-c-Myc and anti-Histone (Santa Cruz Biotechnology, Santa Cruz, Calif.), anti-GSK3β, anti-β-catenin, anti-phospho-p38 MAPK and antiphospho-S^9 (Cell Signaling, Beverly, Mass.) and Anti-Flag (Stratagene, La Jolla, Calif.) were used for Western blot analysis. The phospho-S^389 GSK3β antibody was made by Proteintech, Chicago, Ill., using N-C-ARIQAAA(phos-S)PPANATA (SEQ ID NO:87) for immunization. […]

[3] = test system: phospho-Ser^9 GSK3β in 293T cells; assay: Western blot of phospho-Ser^9 GSK3β in treated 293T cells; assay type: cell-based; conditions: 40 minutes, SB203580 5 μM, Wortmanin 1 μM, FIG. 7
Protocol: (§3) Thymocytes were isolated from wildtype, Rag^−/− or MKK6(Glu) transgenic mice.
(§4) Whole cell extracts were prepared in Triton lysis buffer (TLB) as previously described (25, 26). Nuclear extracts were made from cells as previously described (27). Immunoprecipitations and Western blotting was performed as described in (8). Anti-Akt, anti-p38 MAPK, anti-Lef, anti-c-Myc and anti-Histone (Santa Cruz Biotechnology, Santa Cruz, Calif.), anti-GSK3β, anti-β-catenin, anti-phospho-p38 MAPK and antiphospho-S^9 (Cell Signaling, Beverly, Mass.) and Anti-Flag (Stratagene, La Jolla, Calif.) were used for Western blot analysis. […] Anti-Akt, anti-p38 MAPK and Anti-GSK3β were used for immunoprecipitations. Anti-rabbit-HRP, anti-mouse-HRP (Jackson ImmunoResearch Laboratories, West Grove, Pa.) and anti-goat-HRP (Santa Cruz Biotechnology, Santa Cruz, Calif.) were used as secondary antibodies.

[4] = test system: phosphorylation of GSK3β at Ser^389; assay: Western blot of phospho-Ser^389 in mouse GSK3β-transfected 293T cells; assay type: cell-based; conditions: FIG. 4D
Protocol: as §1, §2

[5] = test system: β-catenin; assay: Western blot of β-catenin in 293T cells transfected with GSK3β, p38 and MKK6; assay type: cell-based; conditions: FIG. 4D
Protocol: as §1, §2

[6] = test system: phospho-Ser^389 GSK3β; assay: In vivo inhibition of p38 MAPK, phospho-Ser^389 GSK3β in thymocytes and brain; design: species or system mouse; conditions: wildtype mice i.p., 18 hours, FIG. 4L
Protocol: as §3, §4

[7] = molecular target: T1, GST-GSK3β (Homo sapiens, UniProt P49841); conditions: references 20, 21; cited from earlier work
T1 construct: made in house
T1 sequence (P49841 whole entry): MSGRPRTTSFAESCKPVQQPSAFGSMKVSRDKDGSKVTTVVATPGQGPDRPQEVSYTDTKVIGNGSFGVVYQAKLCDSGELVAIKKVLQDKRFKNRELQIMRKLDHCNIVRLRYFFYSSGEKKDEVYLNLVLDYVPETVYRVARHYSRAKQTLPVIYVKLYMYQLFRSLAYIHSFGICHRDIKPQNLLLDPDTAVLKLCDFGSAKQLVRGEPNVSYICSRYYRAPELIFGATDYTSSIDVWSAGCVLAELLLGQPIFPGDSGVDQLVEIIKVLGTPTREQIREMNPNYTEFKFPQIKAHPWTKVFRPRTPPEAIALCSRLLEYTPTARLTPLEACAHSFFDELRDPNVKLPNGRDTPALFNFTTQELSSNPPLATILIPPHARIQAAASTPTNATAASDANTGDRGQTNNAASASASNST

[8] = test system: GSM substrate peptide; assay: Specific activity of active GST-GSK3β wildtype and mutants; assay type: biochemical
Protocol: (§5) Active GST-GSK3β and GST-GSK3β-T^43A and GST-GSK3β-T^390 mutants were expressed and purified as described in (29). The specific activity of the wildtype and the mutants was determined using the GSM substrate peptide (Upstate, Lake Placid, N.Y.) and were as follows: GST-GSK3β (91 μmol/μg×min) and GST-GSK3β-T^43A (53 μmol/μg×min) and GST-GSK3β-T^390A (65 μmol/μg×min). In vitro GSK3β kinase assays were performed by incubating purified active wildtype GST-GSK3β or GST-GSK3β-T^43A and GST-GSK3β-T^390A mutants (400 ng) at 30° C. for 10 minutes in kinase buffer supplemented with 1 mM ATP containing [γ-^32P] ATP and GSM substrate peptide (62.5 μM) (Upstate, Lake Placid, N.Y.). Reactions were terminated by spotting onto P81 filters. Filters were washed extensively and counted in a scintillation counter. To examine the effect of p38 MAPK and Akt on GSK3β activity, purified active GSK3β or mutants were preincubated for 15 minutes at 30° C. with 500 ng recombinant active p38 MAPK or active Akt (Cell Signaling, Beverly, Mass.) prior to performing the GSK3β activity assay as described above.

[9] = molecular target: T1, GST-GSK3β; assay: In vitro GSK3β kinase assay with inhibitory peptides (GSM substrate); assay type: biochemical; conditions: for GSK3β activity in the presence of peptide: in vitro kinase reaction, FIG. 3G
Protocol: as §5
For peptide inhibition assays, Phospho-S^9 (GRPRTTS(PO3H2)FAE) (SEQ ID NO:95) (20). Phospho-[…] (RIQAAAST(PO3H2)PTN) (SEQ ID NO:7) and non-phospho-T^390 (RIQAAASTPTN) (SEQ ID NO:96) peptides were synthesized and purified by UVM protein Core Facility. In vitro kinase assays were performed with purified GST-GSK3β (400 ng) in Kinase buffer supplement with 1 mM ATP containing [γ-^32P] ATP and the indicated concentrations of GSM and inhibitory peptide.

[10] = molecular target: GSK3α (Homo sapiens, UniProt P49840); assay: In vitro GSK3α kinase assay after preincubation with activated p38 MAPK; assay type: biochemical; conditions: pre-incubated 15 min; FIG. 12
Sequence of GSK3α (P49840 whole entry, species assumed): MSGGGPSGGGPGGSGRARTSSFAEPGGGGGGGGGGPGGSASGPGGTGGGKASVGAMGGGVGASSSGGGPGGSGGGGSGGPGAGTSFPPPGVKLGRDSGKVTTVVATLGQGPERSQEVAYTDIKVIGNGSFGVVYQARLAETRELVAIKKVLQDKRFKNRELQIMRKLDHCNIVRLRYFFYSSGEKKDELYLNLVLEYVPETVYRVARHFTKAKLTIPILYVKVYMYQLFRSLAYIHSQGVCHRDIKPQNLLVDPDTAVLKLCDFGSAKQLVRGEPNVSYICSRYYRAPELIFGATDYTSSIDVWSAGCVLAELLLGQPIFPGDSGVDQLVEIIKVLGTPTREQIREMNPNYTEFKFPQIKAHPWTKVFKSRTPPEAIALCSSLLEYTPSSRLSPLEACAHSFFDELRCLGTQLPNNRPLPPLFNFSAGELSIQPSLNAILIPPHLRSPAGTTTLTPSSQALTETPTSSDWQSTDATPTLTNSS
Protocol: Recombinant kinase-active GSK3α was pre-incubated in the reaction buffer alone (GSKα), with activated p38 MAPK or activated Akt (15 min). In vitro GSK3α kinase assays were then performed using GSM as the substrate. Error bars represent SD (n=3).

[11] = molecular target: T2, GSK3β-T^390A mutant (Homo sapiens, UniProt P49841, T390A); assay: GSK3β activity after preincubation with active p38 MAPK or Akt; assay type: biochemical; conditions: preincubated 15 minutes at 30° C. with 500 ng kinase; FIG. 3F
T2 construct: made in house
T2 sequence (P49841 whole entry T390A): as the sequence (P49841 whole entry) above, with T390A counted along it
Protocol: as §5

[12] = molecular target: T3, GSK3β-T^43A mutant (Homo sapiens, UniProt P49841, T43A); assay: as above; assay type: biochemical; conditions: preincubated 15 minutes at 30° C. with 500 ng kinase; FIG. 3E
T3 construct: made in house
T3 sequence (P49841 whole entry T43A): as the sequence (P49841 whole entry) above, with T43A counted along it
Protocol: as §5

[13] = molecular target: T4, wild-type GSK3β (Homo sapiens, UniProt P49841); assay: as above; assay type: biochemical; conditions: preincubated 15 minutes at 30° C. with 500 ng kinase; FIG. 3D
T4 construct: made in house
T4 sequence (P49841 whole entry): as the sequence (P49841 whole entry) above
Protocol: as §5

Molecule: C[S+]([O-])c1ccc(-c2nc(-c3ccncc3)c(-c3ccc(F)cc3)[nH]2)cc1 (stereo not drawn) [SB203580]
phosphorylation of GSK3β by purified recombinant activated p38 MAPK ([1]; FIG. 2E): blocked
phosphorylation of recombinant catalytically-inactive GSK3β by immunoprecipitated p38 MAPK ([1]; p38 MAPK from MKK6 thymocytes or MKK6-transfected 293T cells, FIG. 2C): blocked
phosphorylation of endogenous GSK3β at Ser^389 ([2]; embryonic stem (ES) cells): inhibited
phosphorylation of endogenous GSK3β at Ser^389 ([2]; wild-type mouse embryonic fibroblasts (MEFs)): inhibited
phosphorylation of Ser^9 of GSK3β [3]: not affected
phosphorylation of Ser^389 [4]: abrogated
amount of β-catenin [5]: decreased
levels of phospho-Ser^389 GSK3β ([6]; brain): reduced
levels of phospho-Ser^389 GSK3β ([6]; thymocytes): reduced

Molecule: COC[C@H]1OC(=O)c2coc3c2[C@@]1(C)C1=C(C3=O)[C@@H]2CCC(=O)[C@@]2(C)C[C@H]1OC(C)=O [Wortmanin]
phosphorylation of Ser^9 of GSK3β [3]: impaired

Molecule: GRPRTTS(PO3H2)FAE (GRPRTT[pS]FAE) [phospho-Ser^9 peptide]
inhibition of GSK3β in vitro [7]: specifically inhibits GSK3β in vitro

Molecule: GST-GSK3β-T^43A: purified active GST-GSK3β T^43A mutant
specific activity [8]: 53 µmol/µg/min

Molecule: GST-GSK3β-T^390A: purified active GST-GSK3β T^390A mutant
specific activity [8]: 65 µmol/µg/min

Molecule: GST-GSK3β: purified active wildtype GST-GSK3β fusion protein
specific activity [8]: 91 µmol/µg/min

GSK3β activity in the presence of peptide [9]: inhibited GSK3β activity
Molecule: RIQAAAST(PO3H2)PTN (RIQAAAS[pT]PTN) [phospho-Thr^390 peptide]
inhibition of GSK3β activity compared with phospho-Ser^9 peptide ([9]; various concentrations of peptides, FIG. 3H-J): as efficiently as the phospho-Ser^9 peptide

GSK3β activity in the presence of peptide [9]: did not
Molecule: RIQAAASTPTN [unphosphorylated-Thr^390 peptide, reference compound]

effect on GSK3β activity [11]: not
effect on GSK3β activity [12]: inhibited
effect on GSK3β activity [13]: inhibited
Molecule: p38 MAPK: recombinant active p38 MAPK (Cell Signaling)
effect on GSK3α activity [10]: did not affect; also recorded: does not inhibit

effect on GSK3β activity [11]: inhibited
effect on GSK3β activity [12]: inhibited
effect on GSK3β activity [13]: inhibited
B1: Akt: recombinant active Akt (Cell Signaling) (protein)
chain: MNDVAIVKEGWLHKRGEYIKTWRPRYFLLKNDGTFIGYKERPQDVDQRESPLNNFSVAQCQLMKTERPRPNTFIIRCLQWTTVIERTFHVETPEEREEWATAIQTVADGLKRQEEETMDFRSGSPSDNSGAEEMEVSLAKPKHRVTMNEFEYLKLLGKGTFGKVILVKEKATGRYYAMKILKKEVIVAKDEVAHTLTENRVLQNSRHPFLTALKYSFQTHDRLCFVMEYANGGELFFHLSRERVFSEDRARFYGAEIVSALDYLHSEKNVVYRDLKLENLMLDKDGHIKITDFGLCKEGIKDGATMKTFCGTPEYLAPEVLEDNDYGRAVDWWGLGVVMYEMMCGRLPFYNQDHEKLFELILMEEIRFPRTLGPEAKSLLSGLLKKDPTQRLGGGSEDAKEIMQHRFFANIVWQDVYEKKLSPPFKPQVTSETDTRYFDEEFTAQMITITPPDQDDSMECVDSERRPHFPQFSYSASGTA
